We go through 4 molecules from US9738911B2, “Methods of producing 7-carbon chemicals via pyruvate and succinate semialdehyde aldol condensation” (INVISTA North America S.a r.l., priority 2012, dated 2017).

Holding throughout (format): biochemical
The nature of experiment [1]: ω-transaminase activity assay, reverse direction, 7-aminoheptanoate to pimelate semialdehyde. Conditions: 10 mM 7-aminoheptanoate, 10 mM pyruvate, cell free extract, 25° C., 4 h; against empty vector control (FIG. 15). As for the experimental part: (§1) A sequence encoding an N-terminal His-tag was added to the genes from Chromobacterium violaceum, Pseudomonas syringae, Rhodobacter sphaeroides, and Vibrio Fluvialis encoding the ω-transaminases of SEQ ID NOs: 8, 10, 11 and 13, respectively (see FIGS. 7F-7G) such that N-terminal HIS tagged ω-transaminases could be produced. Each of the resulting modified genes was cloned into a pET21a expression vector under control of the T7 promoter and each expression vector was transformed into a BL21[DE3] E. coli host. The resulting recombinant E. coli strains were cultivated at 37° C. in a 250 mL shake flask culture containing 50 mL LB media and antibiotic selection pressure, with shaking at 230 rpm. Each culture was induced overnight at 16° C. using 1 mM IPTG.
(§2) The pellet from each induced shake flask culture was harvested via centrifugation. Each pellet was resuspended and lysed via sonication. The cell debris was separated from the supernatant via centrifugation and the cell free extract was used immediately in enzyme activity assays.
Enzyme activity assays in the reverse direction (i.e., 7-aminoheptanoate to pimelate semialdehyde) were performed in a buffer composed of a final concentration of 50 mM HEPES buffer (pH=7.5), 10 mM 7-aminoheptanoate, 10 mM pyruvate and 100 μM pyridoxyl 5′ phosphate. Each enzyme activity assay reaction was initiated by adding cell free extract of the ω-transaminase gene product or the empty vector control to the assay buffer containing the 7-aminoheptanoate and incubated at 25° C. for 4 h, with shaking at 250 rpm. The formation of L-alanine from pyruvate was quantified via RP-HPLC.

Experiment [2] is described as follows: ω-transaminase activity assay, 7-aminoheptanol to 7-oxoheptanol. Conditions: for substrate acceptance, formation of L-alanine by RP-HPLC: 10 mM 7-aminoheptanol, 10 mM pyruvate, cell free extract, 25° C., 4 h, against empty vector control (FIG. 19); for acceptance of 7-oxoheptanol, forming 7-aminoheptanol, concluded from reversibility: concluded from the reverse direction assay and Example 2. As for the experimental part:
A nucleotide sequence encoding an N-terminal His-tag was added to the Chromobacterium violaceum, Pseudomonas syringae and Rhodobacter sphaeroides genes encoding the ω-transaminases of SEQ ID NOs: 8, 10 and 11, respectively (see FIGS. 7F and 7G) such that N-terminal HIS tagged ω-transaminases could be produced. The modified genes were cloned into a pET21a expression vector under the T7 promoter.
Each expression vector was transformed into a BL21[DE3] E. coli host. Each resulting recombinant E. coli strain were cultivated at 37° C. in a 250 mL shake flask culture containing 50 mL LB media and antibiotic selection pressure, with shaking at 230 rpm. Each culture was induced overnight at 16° C. using 1 mM IPTG.
as §2
Enzyme activity assays in the reverse direction (i.e., 7-aminoheptanol to 7-oxoheptanol) were performed in a buffer composed of a final concentration of 50 mM HEPES buffer (pH=7.5), 10 mM 7-aminoheptanol, 10 mM pyruvate, and 100 μM pyridoxyl 5′ phosphate. Each enzyme activity assay reaction was initiated by adding cell free extract of the ω-transaminase gene product or the empty vector control to the assay buffer containing the 7-aminoheptanol and then incubated at 25° C. for 4 h, with shaking at 250 rpm. The formation of L-alanine was quantified via RP-HPLC.

The nature of experiment [3]: ω-transaminase activity assay, forward direction, pimelate semialdehyde to 7-aminoheptanoate. Particulars: for substrate acceptance, formation of pyruvate from L-alanine by RP-HPLC: 10 mM pimelate semialdehyde, 10 mM L-alanine, cell free extract, 25° C., 4 h, against empty vector control (FIG. 16); for reversibility of ω-transaminase activity: pimelate semialdehyde accepted, 7-aminoheptanoate synthesized: conclusion from the forward and reverse assays of Example 2. As for the experimental part: as §1, §2
Enzyme activity in the forward direction (i.e., pimelate semialdehyde to 7-aminoheptanoate) was confirmed for the transaminases of SEQ ID NO 10, SEQ ID NO 11 and SEQ ID NO 13. Enzyme activity assays were performed in a buffer composed of a final concentration of 50 mM HEPES buffer (pH=7.5), 10 mM pimelate semialdehyde, 10 mM L-alanine and 100 μM pyridoxyl 5′ phosphate. Each enzyme activity assay reaction was initiated by adding a cell free extract of the ω-transaminase gene product or the empty vector control to the assay buffer containing the pimelate semialdehyde and incubated at 25° C. for 4 h, with shaking at 250 rpm. The formation of pyruvate was quantified via RP-HPLC.

On to “SEQ ID NO 11: Rhodobacter sphaeroides ω-transaminase (Genbank Accession No. ABA81135.1)”, for which the “substrate acceptance, formation of L-alanine from pyruvate by RP-HPLC” value (“substrate acceptance … from pyruvate by RP-HPLC” for short) in experiment [1] is recorded as “accepted 7-aminoheptanote as substrate”. In addition, in experiment [2], the “substrate acceptance, formation of L-alanine by RP-HPLC” value was “accepted 7-aminoheptanol as substrate”; the “acceptance of 7-oxoheptanol, forming 7-aminoheptanol, concluded from reversibility” value (“acceptance of 7-oxoheptanol” for short) was “accept 7-oxoheptanol as substrate and form 7-aminoheptanol”. In experiment [3], the “substrate acceptance, formation of pyruvate from L-alanine by RP-HPLC” value (from here on “substrate acceptance … from L-alanine by RP-HPLC”) is given as “accepted pimelate semialdehyde as substrate”; the “reversibility of ω-transaminase activity: pimelate semialdehyde accepted, 7-aminoheptanoate synthesized” value (shortened to “reversibility of ω-transaminase activity”) was “accepted pimelate semialdehyde as substrate and synthesized 7-aminoheptanoate as a reaction product”.

B1: SEQ ID NO 8: Chromobacterium violaceum ω-transaminase (Genbank Accession No. AAQ59697.1) (protein, listed as Chromobacterium violaceum)
chain: MQKQRTTSQWRELDAAHHLHPFTDTASLNQAGARVMTRGEGVYLWDSEGNKIIDGMAGLWCVNVGYGRKDFAEAARRQMEELPFYNTFFKTTHPAVVELSSLLAEVTPAGFDRVFYTNSGSESVDTMIRMVRRYWDVQGKPEKKTLIGRWNGYHGSTIGGASLGGMKYMHEQGDLPIPGMAHIEQPWWYKHGKDMTPDEFGVVAARWLEEKILEIGADKVAAFVGEPIQGAGGVIVPPATYWPEIERICRKYDVLLVADEVICGFGRTGEWFGHQHFGFQPDLFTAAKGLSSGYLPIGAVFVGKRVAEGLIAGGDFNHGFTYSGHPVCAAVAHANVAALRDEGIVQRVKDDIGPYMQKRWRETFSRFEHVDDVRGVGMVQAFTLVKNKAKRELFPDFGEIGTLCRDIFFRNNLIMRACGDHIVSAPPLVMTRAEVDEMLAVAERCLEEFEQTLKARGLA
Regarding B1, the “substrate acceptance … from pyruvate by RP-HPLC” value in experiment [1] is recorded as “accepted 7-aminoheptanote as substrate”. For the same molecule, in experiment [2], the “substrate acceptance, formation of L-alanine by RP-HPLC” value is on record as “accepted 7-aminoheptanol as substrate”; the “acceptance of 7-oxoheptanol” value is “accept 7-oxoheptanol as substrate and form 7-aminoheptanol”. Moreover, in experiment [3], the “reversibility of ω-transaminase activity” value was “accepted pimelate semialdehyde as substrate and synthesized 7-aminoheptanoate as a reaction product”.

B2: SEQ ID NO 13: Vibrio fluvialis ω-transaminase (Genbank Accession No. AEA39183.1) (protein, listed as Vibrio fluvialis)
chain: MNKPQSWEARAETYSLYGFTDMPSLHQRGTVVVTHGEGPYIVDVNGRRYLDANSGLWNMVAGFDHKGLIDAAKAQYERFPGYHAFFGRMSDQTVMLSEKLVEVSPFDSGRVFYTNSGSEANDTMVKMLWFLHAAEGKPQKRKILTRWNAYHGVTAVSASMTGKPYNSVFGLPLPGFVHLTCPHYWRYGEEGETEEQFVARLARELEETIQREGADTIAGFFAEPVMGAGGVIPPAKGYFQAILPILRKYDIPVISDEVICGFGRTGNTWGCVTYDFTPDAIISSKNLTAGFFPMGAVILGPELSKRLETAIEAIEEFPHGFTASGHPVGCAIALKAIDVVMNEGLAENVRRLAPRFEERLKHIAERPNIGEYRGIGFMWALEAVKDKASKTPFDGNLSVSERIANTCTDLGLICRPLGQSVVLCPPFILTEAQMDEMFDKLEKALDKVFAEVA
As for B2, the “substrate acceptance … from pyruvate by RP-HPLC” value in experiment [1] is recorded as “accepted 7-aminoheptanote as substrate”. In experiment [3], the “substrate acceptance … from L-alanine by RP-HPLC” value is “accepted pimelate semialdehyde as substrate”; the “reversibility of ω-transaminase activity” value was “accepted pimelate semialdehyde as substrate and synthesized 7-aminoheptanoate as a reaction product”.

B3: SEQ ID NO 10: Pseudomonas syringae ω-transaminase (Genbank Accession No. AAY39893.1) (protein, listed as Pseudomonas syringae)
chain: MSANNPQTLEWQALSSEHHLAPFSDYKQLKEKGPRIITRAEGVYLWDSEGNKILDGMSGLWCVAIGYGREELADAASKQMRELPYYNLFFQTAHPPVLELAKAISDIAPEGMNHVFFTGSGSEGNDTMLRMVRHYWALKGQPNKKTIISRVNGYHGSTVAGASLGGMTYMHEQGDLPIPGVVHIPQPYWFGEGGDMTPDEFGIWAAEQLEKKILELGVENVGAFIAEPIQGAGGVIVPPDSYWPKIKEILSRYDILFAADEVICGFGRTSEWFGSDFYGLRPDMMTIAKGLTSGYVPMGGLIVRDEIVAVLNEGGDFNHGFTYSGHPVAAAVALENIRILREEKIVERVRSETAPYLQKRLRELSDHPLVGEVRGVGLLGAIELVKDKTTRERYTDKGAGMICRTFCFDNGLIMRAVGDTMIIAPPLVISFAQIDELVEKARTCLDLTLAVLQG
Regarding B3, the “substrate acceptance … from pyruvate by RP-HPLC” value in experiment [1] is “accepted 7-aminoheptanote as substrate”. Moreover, in experiment [2], the “substrate acceptance, formation of L-alanine by RP-HPLC” value is “accepted 7-aminoheptanol as substrate”; the “acceptance of 7-oxoheptanol” value was “accept 7-oxoheptanol as substrate and form 7-aminoheptanol”. For the same molecule, in experiment [3], the “substrate acceptance … from L-alanine by RP-HPLC” value is listed as “accepted pimelate semialdehyde as substrate”; the “reversibility of ω-transaminase activity” value was “accepted pimelate semialdehyde as substrate and synthesized 7-aminoheptanoate as a reaction product”.
